From patent US20240263191 come the findings set out here.

This series has as its target KLF15 (hKLF15) (Homo sapiens) (UniProt Q9UIH9). Description: cell_activity. The note with it: AAV8-GNAT1-hKLF15 subretinal in pig, 2x10^10 gc, 15 days; 38% repression of protein.

KLF15 (hKLF15) (Homo sapiens), sequence (Q9UIH9 whole entry, the tested form may be a part): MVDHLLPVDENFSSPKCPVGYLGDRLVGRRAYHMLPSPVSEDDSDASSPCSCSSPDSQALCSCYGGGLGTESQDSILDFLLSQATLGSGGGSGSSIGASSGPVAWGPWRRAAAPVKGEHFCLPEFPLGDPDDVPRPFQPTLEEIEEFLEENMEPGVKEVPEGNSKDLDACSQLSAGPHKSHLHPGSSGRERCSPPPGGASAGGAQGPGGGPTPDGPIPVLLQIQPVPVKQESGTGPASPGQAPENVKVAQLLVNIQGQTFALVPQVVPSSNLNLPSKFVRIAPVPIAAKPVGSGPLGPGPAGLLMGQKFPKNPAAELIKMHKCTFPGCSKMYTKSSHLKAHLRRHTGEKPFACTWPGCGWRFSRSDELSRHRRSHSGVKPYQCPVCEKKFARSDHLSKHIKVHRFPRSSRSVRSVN

In the case of “endogenous porcine Rho promoter (hRHO-cis highly conserved)”, the activity (% repression of Rho transcript) was found to be 45.
